Data set [1] deals with the molecule itself. Nature of the data set: MST.
For data set [2], the target named is ΔEspP peptide. Nature of the data set: dynamic light scattering.
Data set [3] deals with the molecule itself. Nature of the data set: SEC. A general note: In gel filtration, larger molecules generally elute earlier.

Values joined by “and” are separate entries in the source; they are usually repeats but may differ in a detail not shown here. Equal entries are not always repeated.

Usually Kd stands for the concentration at which binding is half-saturated. Low values mean tighter binding, high ones weaker binding. Broadly, the stoichiometry N is a count of units in the complex or per binding partner.

B1: FITC-labelled human Ire1α luminal domain (aa 24-449) (domain or fragment)
chain: STVTLPETLLFVSTLDGSLHAVSKRTGSIKWTLKEDPVLQVPTHVEEPAFLPDPNDGSLYTLGSKNNEGLTKLPFTIPELVQASPCRSSDGILYMGKKQDIWYVIDLLTGEKQQTLSSAFADSLCPSTSLLYLGRTEYTITMYDTKTRELRWNATYFDYAASLPEDDVDYKMSHFVSNGDGLVVTVDSESGDVLWIQNYASPVVAFYVWQREGLRKVMHINVAVETLRYLTFMSGEVGRITKWKYPFPKETEAKSKLTPTLYVGKYSTSLYASPSMVHEGVAVVPRGSTLPLLEGPQTDGVTIGDKGECVITPSTDVKFDPGLKSKNKLNYLRNYWLLIGHHETPLSASTKMLERFPNNLPKHRENVIPADSEKKSFEEVINLVDQTSENAPTTVSRDVEEKPAHAPARPEAPVDSMLKDMATIIL
modifications: FITC label (site not stated)
On to B1, for which the affinity in data set [1], expressed as Kd, was 500 nM.

B2: human Ire1α luminal domain (aa 24-449), wild type (domain or fragment)
chain: STVTLPETLLFVSTLDGSLHAVSKRTGSIKWTLKEDPVLQVPTHVEEPAFLPDPNDGSLYTLGSKNNEGLTKLPFTIPELVQASPCRSSDGILYMGKKQDIWYVIDLLTGEKQQTLSSAFADSLCPSTSLLYLGRTEYTITMYDTKTRELRWNATYFDYAASLPEDDVDYKMSHFVSNGDGLVVTVDSESGDVLWIQNYASPVVAFYVWQREGLRKVMHINVAVETLRYLTFMSGEVGRITKWKYPFPKETEAKSKLTPTLYVGKYSTSLYASPSMVHEGVAVVPRGSTLPLLEGPQTDGVTIGDKGECVITPSTDVKFDPGLKSKNKLNYLRNYWLLIGHHETPLSASTKMLERFPNNLPKHRENVIPADSEKKSFEEVINLVDQTSENAPTTVSRDVEEKPAHAPARPEAPVDSMLKDMATIIL
On to B2, for which the binding result in data set [2] was “binds”. Moreover, the “stoichiometry N” value in data set [3] is 2 and 4.

(Values after paper doi:10.1101/2024.02.16.579620 (bioRxiv, 2024).)
